This experiment deals with T1, Rpc160-HA (S. cerevisiae, UniProt P04051 1-1460).
T1 construct: Rpc160 (C160), largest subunit of RNA polymerase III, S. cerevisiae; Precipitated from cell extract, so other pol III subunits are probably present with it; also called C160-3HA; largest subunit of pol III; not shown: 3HA, C-terminal, kept
T1 sequence (looked up): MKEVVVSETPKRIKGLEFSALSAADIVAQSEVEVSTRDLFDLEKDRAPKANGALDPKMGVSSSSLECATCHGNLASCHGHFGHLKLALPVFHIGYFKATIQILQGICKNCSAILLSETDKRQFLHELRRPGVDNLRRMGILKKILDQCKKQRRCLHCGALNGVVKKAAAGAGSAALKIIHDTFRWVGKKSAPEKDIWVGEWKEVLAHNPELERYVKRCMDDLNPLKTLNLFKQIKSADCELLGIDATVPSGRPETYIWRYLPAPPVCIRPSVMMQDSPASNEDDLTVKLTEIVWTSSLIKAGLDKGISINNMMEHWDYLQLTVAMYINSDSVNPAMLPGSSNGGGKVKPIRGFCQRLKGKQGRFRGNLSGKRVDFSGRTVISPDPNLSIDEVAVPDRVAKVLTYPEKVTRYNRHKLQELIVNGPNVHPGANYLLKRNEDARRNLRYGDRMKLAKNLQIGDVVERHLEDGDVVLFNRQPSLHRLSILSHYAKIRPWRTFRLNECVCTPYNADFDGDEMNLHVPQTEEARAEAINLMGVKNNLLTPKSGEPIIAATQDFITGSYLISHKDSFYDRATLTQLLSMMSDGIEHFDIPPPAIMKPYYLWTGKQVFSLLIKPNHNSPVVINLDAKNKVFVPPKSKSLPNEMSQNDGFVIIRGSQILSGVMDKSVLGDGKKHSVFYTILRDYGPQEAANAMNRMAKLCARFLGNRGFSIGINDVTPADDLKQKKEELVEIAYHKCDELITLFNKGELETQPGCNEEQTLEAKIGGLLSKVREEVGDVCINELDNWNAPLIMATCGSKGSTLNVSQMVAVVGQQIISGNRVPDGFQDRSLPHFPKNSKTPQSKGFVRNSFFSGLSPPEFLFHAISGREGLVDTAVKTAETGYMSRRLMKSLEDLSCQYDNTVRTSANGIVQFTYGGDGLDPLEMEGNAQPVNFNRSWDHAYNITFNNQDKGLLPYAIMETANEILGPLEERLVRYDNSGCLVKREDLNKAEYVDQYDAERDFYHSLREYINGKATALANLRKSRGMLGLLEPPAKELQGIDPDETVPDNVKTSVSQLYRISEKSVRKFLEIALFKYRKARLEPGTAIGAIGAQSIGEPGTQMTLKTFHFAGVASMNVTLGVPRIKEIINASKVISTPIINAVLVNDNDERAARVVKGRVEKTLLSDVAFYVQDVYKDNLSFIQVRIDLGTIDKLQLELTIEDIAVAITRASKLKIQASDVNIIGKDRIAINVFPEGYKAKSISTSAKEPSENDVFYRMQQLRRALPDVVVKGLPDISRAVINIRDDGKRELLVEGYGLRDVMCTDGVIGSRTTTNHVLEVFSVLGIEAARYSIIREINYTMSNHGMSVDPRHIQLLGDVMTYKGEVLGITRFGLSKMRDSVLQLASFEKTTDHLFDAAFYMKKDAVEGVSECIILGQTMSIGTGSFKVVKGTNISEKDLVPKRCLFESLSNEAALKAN
Briefly: co-IP; Rpc160-HA precipitated with HA monoclonal antibody 12CA5 and protein G-Sepharose from yeast extracts (glass bead breakage, KBC100 buffer with protease and phosphatase inhibitors); Maf1 detected with polyclonal Maf1 antibody, Maf1myc with anti-myc; cells treated with rapamycin or untreated; also in BDP1 wild-type and BDP1-4SA strains (S4 Fig). The note with it: partners not purified.

Where only a bound is given, the exact number is not on record here.

The results in this text go back to publication PMC4430316, “Differential Phosphorylation of RNA Polymerase III and the Initiation Factor TFIIIB in Saccharomyces cerevisiae” (PLoS ONE, 2015).

B1: Maf1 (natural protein, S. cerevisiae, UniProt P41910 1-395, looked up)
chain: MKFIDELDIERVNQTLNFETNDCKIVGSCDIFTTKAVASDRKLYKTIDQHLDTILQENENYNATLQQQLAAPETNQSPCSSPFYSNRRDSNSFWEQKRRISFSEYNSNNNTNNSNGNSSNNNNYSGPNGSSPATFPKSAKLNDQNLKELVSNYDSGSMSSSSLDSSSKNDERIRRRSSSSISSFKSGKSSNNNYSSGTATNNVNKRRKSSINERPSNLSLGPFGPINEPSSRKIFAYLIAILNASYPDHDFSSVEPTDFVKTSLKTFISKFENTLYSLGRQPEEWVWEVINSHMTLSDCVLFQYSPSNSFLEDEPGYLWNLIGFLYNRKRKRVAYLYLICSRLNSSTGEVEDALAKKPQGKLIIDDGSNEYEGEYDFTYDENVIDDKSDQEESLQ
notes: Maf1, repressor of RNA polymerase III transcription, S. cerevisiae; untagged, detected with a polyclonal Maf1 antibody; Phosphorylation state differs between control and rapamycin-treated cells; also called untagged Maf1; source: endogenous, yeast cell extract
Consider B1, for which the “fold increase of Maf1 co-immunoprecipitated with Rpc160 in rapamycin-treated against untreated cells” value is around 13 fold.

B2: Maf1myc (natural protein, S. cerevisiae, UniProt P41910 1-395, looked up)
chain: MKFIDELDIERVNQTLNFETNDCKIVGSCDIFTTKAVASDRKLYKTIDQHLDTILQENENYNATLQQQLAAPETNQSPCSSPFYSNRRDSNSFWEQKRRISFSEYNSNNNTNNSNGNSSNNNNYSGPNGSSPATFPKSAKLNDQNLKELVSNYDSGSMSSSSLDSSSKNDERIRRRSSSSISSFKSGKSSNNNYSSGTATNNVNKRRKSSINERPSNLSLGPFGPINEPSSRKIFAYLIAILNASYPDHDFSSVEPTDFVKTSLKTFISKFENTLYSLGRQPEEWVWEVINSHMTLSDCVLFQYSPSNSFLEDEPGYLWNLIGFLYNRKRKRVAYLYLICSRLNSSTGEVEDALAKKPQGKLIIDDGSNEYEGEYDFTYDENVIDDKSDQEESLQ
notes: Maf1, repressor of RNA polymerase III transcription, S. cerevisiae; also called Maf1-9myc; C-terminal myc-tagged Maf1
Consider B2, for which the “fold increase of Maf1myc co-immunoprecipitated with Rpc160 in rapamycin-treated against untreated cells” value is below 2 fold.
